Literature values in PMC12336664.

Biological target: FXa (Homo sapiens) (UniProt P00742)
Chain of UniProt P00742 (P00742 41-179, chain 1 of 2): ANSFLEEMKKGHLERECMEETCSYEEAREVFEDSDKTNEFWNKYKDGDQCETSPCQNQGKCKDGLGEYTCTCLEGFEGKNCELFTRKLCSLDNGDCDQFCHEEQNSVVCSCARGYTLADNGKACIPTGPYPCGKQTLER
Chain of UniProt P00742 (P00742 235-488, chain 2 of 2): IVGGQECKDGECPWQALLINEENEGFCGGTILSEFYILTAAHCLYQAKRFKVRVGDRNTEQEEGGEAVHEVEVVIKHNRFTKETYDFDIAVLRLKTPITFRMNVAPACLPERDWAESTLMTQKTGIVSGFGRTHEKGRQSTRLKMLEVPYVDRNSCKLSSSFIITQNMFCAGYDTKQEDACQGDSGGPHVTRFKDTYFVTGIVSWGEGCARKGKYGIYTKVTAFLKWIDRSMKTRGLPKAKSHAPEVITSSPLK

In the case of TFPIα (from UniProt P10646), the Kd is given as 0.02 nM.
